Test [1] has as its target T1, human TNFR2 overexpressed on CHO-S cells (CHOS-hTNFR2) (human, UniProt P20333 23-461).
T1 construct: also called hTNFR2 CHO-S; human TNFR2 molecule overexpressed on CHO-S cells
T1 sequence: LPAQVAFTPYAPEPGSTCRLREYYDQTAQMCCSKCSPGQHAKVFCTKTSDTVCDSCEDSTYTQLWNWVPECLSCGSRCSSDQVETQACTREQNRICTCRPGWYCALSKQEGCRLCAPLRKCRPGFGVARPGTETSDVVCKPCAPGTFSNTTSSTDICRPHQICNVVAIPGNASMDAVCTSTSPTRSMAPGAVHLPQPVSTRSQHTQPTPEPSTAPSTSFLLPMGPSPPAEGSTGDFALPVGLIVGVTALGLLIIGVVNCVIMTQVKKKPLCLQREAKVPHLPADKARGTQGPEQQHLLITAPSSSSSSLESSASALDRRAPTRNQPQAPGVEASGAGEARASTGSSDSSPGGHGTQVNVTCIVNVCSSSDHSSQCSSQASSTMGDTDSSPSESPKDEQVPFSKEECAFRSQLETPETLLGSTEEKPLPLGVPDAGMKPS
The test is described as follows: flow cytometry on CHO-S cells overexpressing human TNFR2 (hybridoma antibodies), MFI. The procedure: In the study, the binding of the hybridoma antibodies (3C4, 69B1, and 72G8) of the present invention, after being diluted in a gradient, to a stable CHO-S cell strain overexpressing human TNFR2 on the surface was assayed by using a flow cytometer.
CHOS-hTNFR2 cells or CHOS-cTNFR2 cells were counted and diluted to 2×10⁶ cells/mL, and added to a U-bottom 96-well plate at 100 μL/well. The mixture was centrifuged at 300 g for 5 min, and the cell medium was removed. The dilutions of the samples (the hybridoma antibodies 3C4, 69B1, and 72G8 and the positive control antibody OPI) (the antibodies were subjected to a two-fold serial dilution in PBS from the maximum antibody concentration of 300 nM) were added to the U-plate, and the cells were resuspended at 100 μL/well and left to stand on ice for 30 min. The suspension was centrifuged at 400 g for 5 min, and the supernatant was removed. The cells were washed twice with PBS. The mixture was centrifuged at 300 g for 5 min, and PBS was removed. […] The mixture was centrifuged at 400 g for 5 min, and the supernatant was removed. The cells were washed 3 times with PBS. The cells were resuspended in 200 μL of 1×PBS and assayed by FACS.

The target in test [2] is T2, hTNFR2 protein (coated on the microplate in the blocking ELISA) (human, UniProt P20333 23-257).
T2 construct: The construct coated in the ELISA is not described (it may or may not be the immunogen, Sino biological 10417-H03H)
T2 sequence (looked up): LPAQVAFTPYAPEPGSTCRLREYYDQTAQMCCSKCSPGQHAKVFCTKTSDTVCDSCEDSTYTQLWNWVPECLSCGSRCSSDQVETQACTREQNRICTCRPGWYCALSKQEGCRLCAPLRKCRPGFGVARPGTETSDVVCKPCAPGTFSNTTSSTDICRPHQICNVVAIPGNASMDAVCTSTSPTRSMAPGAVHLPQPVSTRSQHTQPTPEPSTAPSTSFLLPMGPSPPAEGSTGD
The test can be described thus: blocking ELISA: hTNFR2 coated on the plate, binding of biotinylated TNFα blocked by the antibody, Avidin-HRP. The procedure:
The ability of the hybridoma antibodies 3C4, 69B1, and 72G8 and the control antibody OPI to block the binding of human TNFα to hTNFR2 was assayed by ELISA.
(§1) The hTNFR2 protein was resuspended and dissolved to a concentration of 2 μg/mL with PBS, and a microplate was coated with the protein and incubated overnight. The plate was blocked with 5% BSA for 1 h, and a biotinylated antigen (Recombinant Biotinylated TNFα protein (ACRO)) was diluted to 3 μg/mL and added to the plate at 20 μL/well. The antibodies prepared as described above (3C4, 69B1, and 72G8) were each diluted in a gradient starting from the maximum concentration of 300 nM for a total of 8 or 12 dilution gradients. The diluted antibodies were added at 200 μL/well and incubated in PBS on ice for 30 min. The antigen-antibody mixture was incubated in a microplate for 90 min and washed three times with PBS, and the supernatant was discarded. 100 μL of Avidin-HRP (Invitrogen) diluted at a 1:5000 ratio was added to each well, incubated at room temperature for 30 min, and washed six times with PBS. A TMB chromogenic solution (solarbio) was added to the plate at 100 μL/well for color development for 1 min, and the reaction was stopped by adding a stop buffer (solarbio) at 100 μL/well. The plate was read on a microplate reader at OD₄₅₀ and OD₆₂₀.

The target in test [3] is T2, hTNFR2 protein (coated on the …). The test is described as follows: blocking ELISA: hTNFR2 coated on the plate, binding of biotinylated TNFα blocked by the antibody; unit taken from the axis Conc log(nM) [A]. The procedure: as §1, with “to 2” for “to 3”, “at 10” for “at 20”, “at 100” for “at 200”
In a similar manner to that in Example 7, the ability of the humanized antibodies hz3C4.7, hz69b1.5, hz69b1.6, hz69b1.11, and hz69b1.20, and the control antibody OPI to block the binding of human TNFα to hTNFR2 was assayed by ELISA.

Test [4] addresses T3, TNFR2 on human K562 chronic myeloid leukemia cells and on primary human Treg cells (human, UniProt P20333 23-461).
T3 construct: whole, on cells; also called K562 cells
T3 sequence (looked up): T1 sequence
The test can be described thus: flow cytometry on human K562 CML cells, MFI(FL2); unit taken from the axis Conc log(nM). The procedure: (§2) Assay steps: The mixture was centrifuged at 400 g for 5 min, and the cell medium was removed. K562 or Treg cells were resuspended in PBS. After counting, the cells were adjusted to a density of 2×10⁶/mL, and the cell suspension was added to a U-bottom 96-well plate at 100 μL/well. The test antibody was added, subjected to a three-fold gradient dilution, and left to stand on ice for 30 min. The mixture was centrifuged at 300 g for 5 min, and the supernatant was removed. The cells were washed once with PBS. The mixture was centrifuged at 300 g for 5 min, and PBS was removed. 100 μL of PE-anti-human Fc antibody (SOUTHERN BIOTECH, 2040-09) diluted at a ratio of 1:200 was added to each well. The mixture was incubated on ice for 30 min in the dark. The mixture was centrifuged at 400 g for 5 min, and the supernatant was removed. The cells were washed twice with PBS. The cells were resuspended in 100 μL of PBS and assayed by using a flow cytometer (BD, ACCURIC6 plus).

Test [5] has as its target T3, TNFR2 on human K562 chronic myeloid …. The test is described as follows: flow cytometry on primary human Treg cells, MFI(FL2); unit taken from the axis Conc log(nM). The procedure: Tregs were prepared as follows: Human PBMC cells ([…], PB005F) were thawed, CD4⁺ CD25⁺ CD127^low cells were sorted by flow cytometry, and Treg cells were isolated. According to CD4⁺:anti-CD3/CD28 Beads=1:1, Dynabeads Human T-Activator CD3/CD28 (Gibco, 11131D) was added, followed by 10 ng/mL recombinant IL2, and the cells were stimulated for 7 days.
as §2

Test [6] deals with T1, human TNFR2 overexpressed on CHO-S …. The test is described as follows: flow cytometry on CHO-S cells overexpressing human TNFR2 (humanized antibodies), MFI-FL2A; unit taken from the axis Conc log(nM). The procedure:
In the study, the binding of the antibodies, after being diluted in a gradient, to a stable CHO-S strain line overexpressing human TNFR2 on the surface was assayed by using a flow cytometer.
CHOS-hTNFR2 cells were counted and diluted to 2×10⁶ cells/mL, and added to a U-bottom 96-well plate at 100 μL/well. The mixture was centrifuged at 300 g for 5 min, and the cell medium was removed. Samples (the humanized antibodies hz3C4.7, hz69B1.5, hz69B1.6, hz69B1.11 and hz69B1.20, the chimeric antibody 69B1, and the positive control antibody OPI) (the antibodies were subjected to a three-fold dilution in PBS from the maximum antibody concentration of 300 nM) were added to the U-plate, and the cells were resuspended at 100 μL/well and left to stand on ice for 30 min. The suspension was centrifuged at 400 g for 5 min, and the supernatant was removed. The cells were washed twice with PBS. The mixture was centrifuged at 300 g for 5 min, and PBS was removed. 100 μL of anti-human Fc PE-labeled secondary antibody (SoutherBiotech; 2040-09) (diluted at a 1:100 ratio in PBS) was added to each well and incubated on ice for 30 min in the dark. The mixture was centrifuged at 400 g for 5 min, and the supernatant was removed. The cells were washed 3 times with PBS. The cells were resuspended in 200 μL of 1×PBS and assayed by FACS.

We go through six molecules from US20240026019A1 (Innovent, published 2024).

Positions count from the first letter of the chain named.

B1: hybridoma antibody 3C4 (antibody, V domains shown)
VH: QVQLQQSGPELVKPGASVTISCKASDYSFTNYYIHWVKQRPGQGLEWIGWIYPGNVITKYHEKFKGKAILTADTSSTTAYMQLNSLTSEDSAVYFCARSRATGYFDYWGQGTTLTVSS
VL: DIQMTQTTSSLSASLGDRVTISCRASQDIRNYLNWFQQKPDGTIKLLIYYTSRLHSGVPSRFSGSGSGTDYSLTISNLEQEDMATYFCQQFNTLPWTFGGGTKLEIK
notes: Murine antibody from the hybridoma (detected with anti-mouse IgG)
As for B1, the “EC50 (read off the curve)” value in test [1] is ~2 nM. The “IC50 (read off the curve)” value in test [2] is ~5 nM.

B2: humanized antibody hz3C4.7 (antibody, human IgG1, kappa, V domains shown)
VH: QVQLVQSGAEVKKPGASVKVSCKASDYSFTNYYIHWVRQAPGQGLEWMGWIYPGNVITKYHEKFKGRVTMTADTSTSTAYMELSSLRSEDTAVYYCARSRATGYFDYWGQGTLVTVSS
VL: DIQMTQSPSSLSASVGDRVTITCRASQDIRNYLNWYQQKPGKAPKLLIYYTSRLHSGVPSRFSGSGSGTDYTLTISSLQPEDFATYYCQQFNTLPWTFGGGTKVEIKR
B2 showed an IC50 in test [3] of 30 nM. In addition, the EC50 in test [4] is 0.0356 nM; in test [5], 0.0599 nM; in test [6] it was 0.207 nM.

B3: humanized antibody hz69B1.5 (antibody, human IgG1, kappa, V domains shown)
VH: QIQLVQSGSELKKPGASVKVSCKASGYTFTDYSMNWVRQAPGQGLEWMGWLNTETGEPIYADDFKGRFVFSLDTSVSTAYLQISSLKAEDTAVYFCAREAIYYGTSYVLDYWGQGTLVTVSS
VL: DIVLTQSPASLAVSPGQRATITCRASESVEYYGTNFMQWYQQKPGQPPKLLIYSASNVESGVPARFSGSGSGTDFTLTINPVEANDTANYYCQQSRKDPSTFGQGTKLEIKR
Take B3: the EC50 came out at 0.0613 nM in test [4], 0.0239 nM in test [5] and 0.424 nM in test [6].

B4: humanized antibody hz69B1.6 (antibody, human IgG1, kappa, V domains shown)
VH: QVQLVQSGAEVKKPGASVKVSCKASGYTFTDYSMNWVRQAPGQRLEWMGWLNTETGEPIYADDFKGRVTITRDTSASTAYMELSSLRSEDTAVYYCAREAIYYGTSYVLDYWGQGTLVTVSS
VL: B3 VL with Y91F
B4 displayed an EC50 in test [6] of 0.357 nM.

B5: humanized antibody hz69B1.20 (antibody, human IgG1, kappa, V domains shown)
VH: B3 VH
VL: B3 VL with N85Q, Y91F
Take B5: the EC50 is 0.0549 nM in test [4], 0.0299 nM in test [5] and 0.42 nM in test [6].

B6: humanized antibody hz69B1.11 (antibody, human IgG1, kappa, V domains shown)
VH: B4 VH
VL: B3 VL with N85Q, Y91F
Consider B6, for which the EC50 came out at 0.0446 nM in test [4], 0.0243 nM in test [5] and 0.36 nM in test [6].
